Data published in US20240392004A1 (IMMUNOWAKE, published 2024).

What was measured:
Assay in all cases: cell-based or functional assay
[1] = molecular target: human IL-12 receptor complex (IL-12Rβ1 and IL-12Rβ2) (human, UniProt P42701 24-662; Q99665 24-862)
[2] = molecular target: T1, IFN-γ receptor (IFNGR1 and IFNGR2) (UniProt P15260 18-489; P38484 22-337, limits assumed)
T1 sequence (looked up) 1: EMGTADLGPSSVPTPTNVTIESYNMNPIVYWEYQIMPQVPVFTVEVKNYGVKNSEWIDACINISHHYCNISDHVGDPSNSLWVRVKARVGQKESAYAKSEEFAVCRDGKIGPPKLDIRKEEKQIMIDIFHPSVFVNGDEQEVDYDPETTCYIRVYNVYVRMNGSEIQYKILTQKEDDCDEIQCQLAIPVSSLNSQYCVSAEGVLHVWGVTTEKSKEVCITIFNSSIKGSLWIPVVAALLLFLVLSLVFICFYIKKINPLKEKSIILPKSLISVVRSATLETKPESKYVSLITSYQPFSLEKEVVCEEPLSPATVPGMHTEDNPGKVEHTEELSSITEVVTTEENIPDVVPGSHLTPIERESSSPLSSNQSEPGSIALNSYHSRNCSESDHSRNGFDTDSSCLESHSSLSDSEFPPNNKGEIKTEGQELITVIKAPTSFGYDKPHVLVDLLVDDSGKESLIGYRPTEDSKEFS
T1 sequence (looked up) 2: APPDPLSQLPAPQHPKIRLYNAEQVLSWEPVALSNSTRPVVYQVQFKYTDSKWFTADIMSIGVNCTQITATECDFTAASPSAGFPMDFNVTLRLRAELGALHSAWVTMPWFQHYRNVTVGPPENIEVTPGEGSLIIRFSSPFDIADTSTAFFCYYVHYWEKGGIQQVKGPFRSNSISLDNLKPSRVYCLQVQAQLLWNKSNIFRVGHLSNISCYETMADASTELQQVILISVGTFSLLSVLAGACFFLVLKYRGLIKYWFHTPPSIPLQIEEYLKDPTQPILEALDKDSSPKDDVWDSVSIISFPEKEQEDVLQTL

[3] = molecular target: T2, human TIGIT on HEK-Blue reporter cells (human, UniProt Q495A1 22-244)
T2 sequence (looked up): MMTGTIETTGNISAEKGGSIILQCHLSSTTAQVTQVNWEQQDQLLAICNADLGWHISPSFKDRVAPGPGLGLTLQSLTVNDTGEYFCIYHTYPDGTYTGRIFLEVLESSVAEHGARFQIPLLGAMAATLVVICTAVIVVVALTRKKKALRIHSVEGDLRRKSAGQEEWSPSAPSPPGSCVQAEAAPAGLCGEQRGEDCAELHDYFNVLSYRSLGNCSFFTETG

human IL-12 receptor complex (IL-12Rβ1 and IL-12Rβ2), sequence (Q99665 24-862, chain 2 of 2, other chains not shown): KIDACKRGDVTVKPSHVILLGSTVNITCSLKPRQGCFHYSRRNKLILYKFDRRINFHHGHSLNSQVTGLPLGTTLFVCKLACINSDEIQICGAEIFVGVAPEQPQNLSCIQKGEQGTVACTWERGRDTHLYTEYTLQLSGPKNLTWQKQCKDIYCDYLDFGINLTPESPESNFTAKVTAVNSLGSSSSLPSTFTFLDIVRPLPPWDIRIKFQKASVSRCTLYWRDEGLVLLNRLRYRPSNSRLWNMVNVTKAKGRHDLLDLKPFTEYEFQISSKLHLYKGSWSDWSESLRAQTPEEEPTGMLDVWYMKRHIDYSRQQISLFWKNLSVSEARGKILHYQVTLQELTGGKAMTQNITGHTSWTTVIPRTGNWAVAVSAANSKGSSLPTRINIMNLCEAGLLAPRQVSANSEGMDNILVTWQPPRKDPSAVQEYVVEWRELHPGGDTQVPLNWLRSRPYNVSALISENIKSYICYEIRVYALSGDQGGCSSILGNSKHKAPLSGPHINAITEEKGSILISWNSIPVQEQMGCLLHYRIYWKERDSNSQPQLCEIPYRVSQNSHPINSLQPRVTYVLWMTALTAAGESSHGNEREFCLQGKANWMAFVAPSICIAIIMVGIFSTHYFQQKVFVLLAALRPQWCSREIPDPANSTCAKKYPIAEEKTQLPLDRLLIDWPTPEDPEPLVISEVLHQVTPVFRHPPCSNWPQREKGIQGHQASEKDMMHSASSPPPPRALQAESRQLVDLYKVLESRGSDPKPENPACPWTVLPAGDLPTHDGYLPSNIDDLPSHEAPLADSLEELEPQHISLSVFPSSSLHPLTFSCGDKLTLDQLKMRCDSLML

IL-12 signal transduction, HEK-IL-12 [1]: 2%
IFN-γ signal transduction, HEK-IFN-γ [2]: < 0.2%
IL-12 signal transduction, HEK-IL-12-TIGIT [3]: 60%
B1: IFN-γ(A23V/A23V)/CD155-Fc/IL-12(E59A/F60A) (Fc fusion)
chain 1: WPPPGTGDVVVQAPTQVPGFLGDSVTLPCYLQVPNMEVTHVSQLTWARHGESGSMAVFHQTQGPSYSESKRLEFVAARLGAELRNASLRMFGLRVEDEGNYTCLFVTFPQGSRSVDIWLRVLAKPQNTAEVQKVQLTGEPVPMARCVSTGGRPPAQITWHSDLGGMPNTSQVPGFLSGTVTVTSLWILVPSSQVDGKNVTCKVEHESFEKPQLLTVNLTVYYPPEVSISGYDNNWYLGQNEATLTCDARSNPEPTGYNWSTTMGPLPPFAVAQGAQLLIRPVDKPINTTLICNVTNALGARQAELTVQVKEGPPSEHSGISRNGGGGSGGGDKTHTCPPCPAPEDEGGPSVFLFPPKPKDTLMISRTPEVTCVVVDVSHEDPEVKFNWYVDGVEVHNAKTKPREEQYNSTYRVVSVLTVLHQDWLNGKEYKCKVSNKALPAPIEKTISKAKGQPREPQVYVYPPSREEMTKNQVSLTCLVKGFYPSDIAVEWESNGQPENNYKTTPPVLDEDGSFALVSKLTVDKSRWQQGNVFSCSVMHEALHNHYTQKSLSLSPGKGGGGSGGGIWELKKDVYVVELDWYPDAPGEMVVLTCDTPEEDGITWTLDQSSEVLGSGKTLTIQVKAAGDAGQYTCHKGGEVLSHSLLLLHKKEDGIWSTDILKDQKEPKNKTFLRCEAKNYSGRFTCWWLTTISTDLTFSVKSSRGSSDPQGVTCGAATLSAERVRGDNKEYEYSVECQEDSACPAAEESLPIEVMVDAVHKLKYENYTSSFFIRDIIKPDPPKNLQLKPLKNSRQVEVSWEYPDTWSTPHSYFSLTFCVQVQGKSKREKKDRVFTDKTSATVICRKNASISVRAQDRYYSSSWSEWASVPCSGGGGSGGGSGGGGSRNLPVATPDPGMFPCLHHSQNLLRAVSNMLQKARQTLEFYPCTSEEIDHEDITKDKTSTVEACLPLELTKNESCLNSRETSFITNGSCLASRKTSFMMALCLSSIYEDLKMYQVEFKTMNAKLLMDPKRQIFLDQNMLAVIDELMQALNFNSETVPQKSSLEEPDFYKTKIKLCILLHAFRIRAVTIDRVMSYLNAS
chain 2: WPPPGTGDVVVQAPTQVPGFLGDSVTLPCYLQVPNMEVTHVSQLTWARHGESGSMAVFHQTQGPSYSESKRLEFVAARLGAELRNASLRMFGLRVEDEGNYTCLFVTFPQGSRSVDIWLRVLAKPQNTAEVQKVQLTGEPVPMARCVSTGGRPPAQITWHSDLGGMPNTSQVPGFLSGTVTVTSLWILVPSSQVDGKNVTCKVEHESFEKPQLLTVNLTVYYPPEVSISGYDNNWYLGQNEATLTCDARSNPEPTGYNWSTTMGPLPPFAVAQGAQLLIRPVDKPINTTLICNVTNALGARQAELTVQVKEGPPSEHSGISRNGGGSGQDPYVKEAENLKKYFNAGHSDVVDNGTLFLGILKNWKEESDRKIMQSQIVSFYFKLFKNFKDDQSIQKSVETIKEDMNVKFFNSNKKKRDDFEKLTNYSVTDLNVQRKAIHELIQVMAELSPAAKTGKRKRSQMLFRGGGGSGGGGSGGGGSGGGGSQDPYVKEAENLKKYFNAGHSDVVDNGTLFLGILKNWKEESDRKIMQSQIVSFYFKLFKNFKDDQSIQKSVETIKEDMNVKFFNSNKKKRDDFEKLTNYSVTDLNVQRKAIHELIQVMAELSPAAKTGKRKRSQMLFRGGGGGSGGGDKTHTCPPCPAPEKKGGPSVFLFPPKPKDTLMISRTPEVTCVVVDVSHEDPEVKFNWYVDGVEVHNAKTKPREEQYNSTYRVVSVLTVLHQDWLNGKEYKCKVSNKALPAPIEKTISKAKGQPREPQVYVLPPSREEMTKNQVSLLCLVKGFYPSDIAVEWESNGQPENRYMTWPPVLDSDGSFFLYSKLTVDKSRWQQGNVFSCSVMHEALHNHYTQKSLSLSPGK
